Substitutions are numbered along the chain they refer to.
T1: HuCDCP1-C (human, UniProt Q9H5V8 30-667)
T1 construct: range 30-667; expressed in HEK-293T, purified by Fc/his tag; also called human CDCP1-C; full-length extracellular domain of human CDCP1; not shown: Fc or his tag
T1 sequence (looked up): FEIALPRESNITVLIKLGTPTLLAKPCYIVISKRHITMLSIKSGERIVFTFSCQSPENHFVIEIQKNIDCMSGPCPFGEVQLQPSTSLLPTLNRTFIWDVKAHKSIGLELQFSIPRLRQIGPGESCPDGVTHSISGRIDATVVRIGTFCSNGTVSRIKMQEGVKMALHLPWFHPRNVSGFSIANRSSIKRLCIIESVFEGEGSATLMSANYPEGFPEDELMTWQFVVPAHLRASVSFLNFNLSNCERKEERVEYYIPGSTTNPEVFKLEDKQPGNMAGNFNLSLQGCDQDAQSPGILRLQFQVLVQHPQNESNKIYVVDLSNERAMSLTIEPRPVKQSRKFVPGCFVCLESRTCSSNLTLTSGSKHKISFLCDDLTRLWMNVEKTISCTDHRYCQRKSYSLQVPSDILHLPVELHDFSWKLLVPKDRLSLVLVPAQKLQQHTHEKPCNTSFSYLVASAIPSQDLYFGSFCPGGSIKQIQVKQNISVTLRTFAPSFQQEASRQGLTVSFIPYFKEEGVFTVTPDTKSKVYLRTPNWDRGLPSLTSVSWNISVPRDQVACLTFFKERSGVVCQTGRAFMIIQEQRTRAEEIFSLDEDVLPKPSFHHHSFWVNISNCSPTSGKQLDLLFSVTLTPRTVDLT

T2: CynoCDCP1 (Macaca fascicularis, UniProt A0A2K5VLA8 30-667)
T2 construct: extracellular domain; also called Macaca fascicularis CDCP1; monkey CDCP1; not shown: Fc or his tag
T2 sequence: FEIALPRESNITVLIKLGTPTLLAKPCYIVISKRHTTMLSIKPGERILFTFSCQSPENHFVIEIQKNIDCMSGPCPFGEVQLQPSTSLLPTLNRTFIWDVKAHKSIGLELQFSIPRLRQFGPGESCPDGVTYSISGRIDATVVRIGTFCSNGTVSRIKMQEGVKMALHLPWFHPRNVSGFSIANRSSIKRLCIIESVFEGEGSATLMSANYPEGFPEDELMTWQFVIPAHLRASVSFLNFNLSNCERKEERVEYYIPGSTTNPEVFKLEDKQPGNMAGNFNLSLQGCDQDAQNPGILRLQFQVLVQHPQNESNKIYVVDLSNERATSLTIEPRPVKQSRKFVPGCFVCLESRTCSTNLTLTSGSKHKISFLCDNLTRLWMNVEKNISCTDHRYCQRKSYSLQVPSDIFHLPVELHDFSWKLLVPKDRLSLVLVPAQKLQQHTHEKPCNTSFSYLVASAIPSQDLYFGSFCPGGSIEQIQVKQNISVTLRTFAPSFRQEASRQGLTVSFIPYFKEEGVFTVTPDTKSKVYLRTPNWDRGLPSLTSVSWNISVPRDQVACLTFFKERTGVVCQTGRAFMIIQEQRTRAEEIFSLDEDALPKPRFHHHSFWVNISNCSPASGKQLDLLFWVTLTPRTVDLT

T3: HuCDCP1-A (human, UniProt Q9H5V8 30-430)
T3 construct: range 30-430; expressed in HEK-293T, purified by Fc/his tag; also called human CDCP1-A; membrane-distal region of CDCP1; not shown: Fc or his tag
T3 sequence (looked up): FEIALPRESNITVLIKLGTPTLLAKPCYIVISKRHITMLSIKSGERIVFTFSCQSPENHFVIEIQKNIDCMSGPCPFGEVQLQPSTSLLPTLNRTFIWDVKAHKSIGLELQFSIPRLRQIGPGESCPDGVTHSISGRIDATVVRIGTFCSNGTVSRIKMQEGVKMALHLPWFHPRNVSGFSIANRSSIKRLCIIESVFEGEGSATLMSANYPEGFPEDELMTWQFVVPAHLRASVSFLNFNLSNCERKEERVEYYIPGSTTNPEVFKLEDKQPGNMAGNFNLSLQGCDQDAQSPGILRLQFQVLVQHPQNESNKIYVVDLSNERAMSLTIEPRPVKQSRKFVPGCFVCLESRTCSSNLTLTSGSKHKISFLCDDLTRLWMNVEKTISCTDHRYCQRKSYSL

T4: HuCDCP1-B (human, UniProt Q9H5V8 343-667)
T4 construct: range 343-667; expressed in HEK-293T, purified by Fc/his tag; also called human CDCP1-B; membrane-proximal region of CDCP1; not shown: Fc or his tag
T4 sequence (looked up): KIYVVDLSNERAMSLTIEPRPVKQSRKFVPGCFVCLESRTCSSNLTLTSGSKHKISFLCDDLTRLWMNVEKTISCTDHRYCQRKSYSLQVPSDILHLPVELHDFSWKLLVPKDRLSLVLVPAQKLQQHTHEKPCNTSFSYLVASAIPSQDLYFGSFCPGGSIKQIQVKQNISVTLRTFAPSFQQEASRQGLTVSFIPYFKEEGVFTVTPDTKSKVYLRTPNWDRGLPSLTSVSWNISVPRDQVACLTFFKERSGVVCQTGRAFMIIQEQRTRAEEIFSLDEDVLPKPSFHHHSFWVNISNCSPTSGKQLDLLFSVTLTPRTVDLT

B1: 12E6 (antibody, V domains shown)
VH: EVQLKESGPGILQPSQTLSLTCSFSGFSLSTSGMGVGWIRQPSGKGLEWLAHIWWDDVKLYNPALKSRLTISKETSNNQVFLKIASVDAADTATYYCARIDHGYGSNYWDFDVWGAGTTVTVSS
VL: DIVMTQAAPSVPVTPGGSVSISCRSTKSLLHSDGKTYLYWFLQRPGQSPQLLIYRMSNLASGVPDRFSGSGSGTAFTLRISRVEAEDVGVYYCMQHLEYPFTFGSGTKLEIK
notes: murine hybridoma mAb
B2: 8E5 (antibody, V domains shown)
VH: EVQLKESGPELKKPGETVKISCKASGYTLTDFSMHWLKQAPGKGLKWMGWINTETGAPTYADDFKGRFALSLDTSANTAYLQINNLKNEDTATYFCSRGRDYDPHFDYWGQGTTVTVSS
VL: EIVLTQSPATLSVTPGDRVSLSCRASQSISDFLHWYQQRSHESPRLLIKYASQSISGIPSRFGGSGSGSDFTLNINTVEPEDVGMYYCQSAHSFPYTFGGGTKLEIK
notes: murine hybridoma mAb; also called 8ES
B3: G10F6 (antibody, V domains shown)
VH: EVKLVESGPGILQPSQTLSLTCSFSGFSLSTSGMGVSWVRQPSGKGLEWLAHIYWDDDKRYNPSLKGRLTISKDTPRNQVFLEITSVDTTDTATYYCARVPGNWDEDAMDYWGQGTTVTVSS
VL: DIQMTQSPLSLPVSLGDQASISCRSSQNIVHTNGNTYLEWYLQKVGQSPKLLIYKVSNRFSGVPDRFSGSGSGTDFTLKISRVEAEDLGVYYCFQGSHVPYTFGGGTKLEIK
notes: murine hybridoma mAb
B4: 1CP-117 (antibody, human IgG1, kappa, V domains shown)
VH: QVQLVQSGSELKKPGASVKVSCKASGYTLTDFSMHWVRQAPGQGLEWMGWINTETGAPTYADDFKGRFVLSLDTSVSTAYLQISSLKAEDTAVYYCSRGRDYDPHFDYWGQGTLVTVSS
VL: EIVLTQSPATLSLSPGERATLSCRASQSISDFLHWYQQKPGQSPRLLIKYASQSISGIPARFSGSGSGSDFTLTISSVEPEDFAVYYCQSAHSFPYTFGQGTKLEIKR
notes: humanized 8E5, human IgG1 kappa
B5: 1CP-121 (antibody, human IgG1, kappa, V domains shown)
VH: B4 VH
VL: B4 VL with P40S
notes: as for B4
B6: 3C11 (antibody, V domains shown)
VH: EVQLQQSGTVLARPGASVKMSCKASGYNFISYWLHWIKQRPGQGLEWIGGIYPGNTDTTYNQKFKGKAKVTAVTSATTAYMELSSLTNEDSAVYYCIRYDYDRGMDYWGQGTTVTVSS
VL: DIQMTQSPSSFSVSLGDRVTITCRASEDIYYRLAWYQQKPGNAPRLLISGATALETGVPSRFSGSGSGKDYTLSITSLQTEDVATYYCQHYWNIPWTFGGGTKLEIK
notes: murine hybridoma mAb
B7: 6A7 (antibody, V domains shown)
VH: EVQLKESGAELVRPGASVKVSCKASGYSFTSYWMNWVKQRPGQGLEWIGMIHPSDSETKLNQKFRDRASLTVDKSSSTAYMQLSSPTSEDSAVYYCTINYESFYYAMDYWGQGTTVTVSS
VL: DIVMTQSPASLAVSLGQRATISCRASKSVSTSGYSYMHWYQQKPGQPPKLLLYLASNLESGVPARFSGSGSGADFTLNIHPVEEEDAATYYCLHSRELPYTFGGGTKLEIK
notes: murine hybridoma mAb
B8: 3B12H5 (antibody, V domains shown)
VH: EVQLQQSGTVLARPGASVKMSCKASGYSFTIYWVHWVKQRPGQGLEWIGAVYPGNDDTSYNQNFKGKAKLTAVTSATTAYMELSSLTIDDSAVYYCTRHTYDEVFDYWGQGTTVTVSS
VL: B6 VL with Q3V, F11L, R24K, A51G, A53N, T56A, V58I, T85I, I94T
notes: murine hybridoma mAb; also called 3B12HS
B9: 5B8 (antibody, V domains shown)
VH: EVQLKESGGGLVQPGGSLRISCATSGLTFTHYHMSWVRQPPGKAPEWLAIIRNKAYGYTTDYSASVRGRFTISRDDSQSILYLQMNTLRAEDSATYYCVREGGYGYDGTFAYWGQGTTVTVSS
VL: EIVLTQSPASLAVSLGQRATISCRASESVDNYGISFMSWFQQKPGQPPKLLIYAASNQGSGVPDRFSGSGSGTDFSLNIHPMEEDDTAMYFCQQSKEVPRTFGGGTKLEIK
notes: murine hybridoma mAb
B10: 8C9 (antibody, V domains shown)
VH: B9 VH with A90P
VL: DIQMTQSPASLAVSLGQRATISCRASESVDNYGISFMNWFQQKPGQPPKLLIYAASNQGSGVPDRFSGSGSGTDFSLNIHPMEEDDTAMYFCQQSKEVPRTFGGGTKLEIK
notes: murine hybridoma mAb
B11: 3F1A11 (antibody, V domains shown)
VH: EVKLVESGPGLVKPSQSLSLTCTVTGYSITSDYAWNWIRQFPGNKLEWMGYISYNTYTSYNPSLKSRISVTRDTSKNQFFLQLKSVTIEDTATYFCAGGDYYGTGAVDYWGQGTTVTVSS
VL: EIVLTQSPLSLPVSLGDQASISCRSRQTLVHTNGNTYLDWYLQKPGQSPKLLIYKVSIRFSGVPDRFSGSRSGTDFTLKISRVEAEDLGIYYCFQGSHVPWTFGGGTKLEIK
notes: murine hybridoma mAb
B12: 14A10C5 (antibody, V domains shown)
VH: EVKLVESGPGILQPSQTLSLTCSFSGFSLSTSGMGVSWIRQPSGKGLEWLAHIYWDDEKRYNPSLKSRLTISKDTSSNQVFLKITSVDTADTATYYCAREGSANWEAMDYWGQGTTVTVSS
VL: B3 VL with Q3V, S7A, P8A, H31Y, N35I, V45P, G73A, G96S, Y101W
notes: murine hybridoma mAb; also called 14A10CS
B13: 10D2 (antibody, V domains shown)
VH: EVQLQQSGPELKKPGETVKISCKASGYTFTDYSMHWVKQAPGKGLKWMGWINTETGQPTYADDFKGRFAFSLETSASSAYLQINNLKNEDTATYFCTRTFYYDYVGDYWGQGTTVTVSS
VL: DIVMTQSHKFMSTSVGDRVSITCKASQDVSTAVAWYRQKPGQSPKLLIYWASTRHTGVPDRLTGSGSGTDFALTINSVQAEDLALYYCQQHSSTPYTFGGGTKLEIK
notes: murine hybridoma mAb

Legend:
[1] = biological target: T1, HuCDCP1-C; test: SPR (Caterra or Biacore), antigen immobilized
[2] = biological target: T2, CynoCDCP1; test: SPR (Caterra or Biacore), antigen immobilized
[3] = biological target: T3, HuCDCP1-A; test: SPR (Caterra), antigen immobilized
Experimental: (§1) The humanized anti-CDCP1 antibodies obtained from Example 11 were subjected to gene cloning, constructed into pTT5 expression vector for a small amount of expression in CHO cells (Expi-CHOS: Gibco A29127), and purified with an Fc affinity column (AT Protein A Diamond Plus. No. AA402312). Antibody purity was analyzed by HPLC and determined by Nanodrop. High-throughput affinity assay was carried out for a small amount of antibodies by Caterra.
(§2) Further, Partial anti-CDCP1 humanized antibodies were selected for expression, and then the affinity of the antibodies to the antigens Hu-CDCP1-A, Hu-CDCP1-B, Cyno-CDCP1, and Ms-CDCP1 was detected according to the above affinity detection method.

[4] = biological target: T4, HuCDCP1-B; test: SPR (Caterra), antigen immobilized
Experimental: as §1, §2

[5] = biological target: T2, CynoCDCP1; test: SPR (Caterra), antigen immobilized
Experimental: as §1, §2

Binder | EC50 [1] | EC50 [2] | Kd [3] | Kd [4] | Kd [5]
B1 | 0.0634 nM | 1.45 nM |  |  | 
B2 | 0.105 nM | 0.0516 nM |  |  | 
B3 | 5.63 nM | 4.47 nM |  |  | 
B4 |  |  | 76.5 nM | 182 nM | 1.84 nM
B5 |  |  | 99.8 nM | 131 nM | 1.51 nM
B6 | 3.96 nM | 23.6 nM |  |  | 
B7 | 9.65 nM | 9.96 nM |  |  | 
B8 | 0.723 nM | 4.5 nM |  |  | 
B9 | 1.19 nM | 0.136 nM |  |  | 
B10 | 1.72 nM | 0.564 nM |  |  | 
B11 | 37.9 nM | 115 nM |  |  | 
B12 | 2.02 nM | 98.3 nM |  |  | 
B13 | 0.705 nM | 16.1 nM |  |  | 

Reference: patent US20260250410A1 (SICHUAN HUIYU PHARMACEUTICAL, published 2026)
